Data as given in article PMC9972897 (Science immunology, 2023).

How the values were obtained:
[1] = molecular target: SARS-CoV-2 S Omicron BA.1, C-terminally truncated, expressed on 293T cells (SARS-CoV-2, Omicron BA.1 (B.1.1.529), strain); test: flow cytometry on cells; details: one partner purified
[2] = molecular target: SARS-CoV-2 S Omicron BA.4/BA.5, C-terminally truncated, expressed on 293T cells (SARS-CoV-2, Omicron BA.4/BA.5, strain); test: flow cytometry on cells; details: one partner purified
[3] = molecular target: SD1-RBD of SARS-CoV-2 S, Alpha (SARS-CoV-2, Alpha (B.1.1.7), strain); test: ELISA; details: both partners purified
[4] = molecular target: SD1-RBD of SARS-CoV-2 S, Beta (SARS-CoV-2, Beta (B.1.351), strain); test: ELISA; details: both partners purified
[5] = molecular target: SD1-RBD of SARS-CoV-2 S, Gamma (SARS-CoV-2, Gamma (B.1.1.28.1), strain); test: ELISA; details: both partners purified
[6] = molecular target: SD1-RBD of SARS-CoV-2 S, Delta (SARS-CoV-2, Delta (B.1.617.2), strain); test: ELISA; details: both partners purified
[7] = molecular target: SD1-RBD of SARS-CoV-2 S, Omicron BA.1 (SARS-CoV-2, Omicron BA.1 (B.1.1.529), strain); test: ELISA; details: both partners purified
[8] = molecular target: SD1-RBD of SARS-CoV-2 S, Omicron BA.2 (SARS-CoV-2, Omicron BA.2, strain); test: ELISA; details: both partners purified
[9] = molecular target: SD1-RBD of SARS-CoV-2 S, Omicron BA.2.75 (SARS-CoV-2 Omicron BA.2.75 (GenBank …, strain)); test: ELISA; details: both partners purified
[10] = molecular target: SD1-RBD of SARS-CoV-2 S, Omicron BA.4/BA.5 (SARS-CoV-2 Omicron BA.4/BA.5 (GenBank …, strain)); test: ELISA; details: both partners purified
[11] = molecular target: SARS-CoV-2 S-2P ectodomain trimer (ancestral) (SARS-CoV-2 (ancestral, MN908947), stabilised); test: SPR; details: both partners purified

B1: hr2.016 monoclonal antibody (IgG) (antibody, V domains shown)
VH: EVQLLESGGGLVQPGGSLRLSCAASGFMFSKYAMTWVRQTPGKGLEWVSVISGGGGSTYYADSVKGRFTISRDNSKNTLYLQMNSLRAEDTAVYYCAKLLVVFVIDYWGQGALVTVSS
VL: EIVLTQSPGTLSLSPGERATLFCRASQSVSSNLAWYQQKPGRAPRLLISGASSRATGIPDRFSGSGSGTDFTLTISRLEPEDFAVYYCQQYGSSPPTFGQGTKVEIK
fold increase of binding (gMFI) with soluble ACE2 [1]: 4.9 fold | fold increase of binding (gMFI) with soluble ACE2 [2]: 4.6 fold

B2: fp.006 monoclonal antibody (IgG) (antibody, V domains shown)
VH: EVQLVESGGGVVQPGGSLRLSCAASGFNFNNYALHWVRQAPGKGLEWVAIISYEARNKKYGVSVMGRFSISRDNSKSIMYLEMNSLRVEDTGVYYCARDLFLSDYDRSGYDPTRGGFDHWGQGTLVTVSS
VL: EIVMTQSPATLSVSPGERATLSCRASQSVSSSLAWYQHRFGQAPRLLISGASTRATGIPGRFSGSGSGTEFTLTISSLQSEDVAVYYCQQYGDWPLVTFGGGTKVEIK
fold increase of binding (gMFI) with soluble ACE2 [1]: 5.3 fold | fold increase of binding (gMFI) with soluble ACE2 [2]: 8.2 fold

B3: hr2.023 monoclonal antibody (IgG) (antibody, V domains shown)
VH: QVQLVQSGAEVKKPGASVKVSCRASENIFSDSYLHWVRQAPGQGLEWMGIITPSGDKTFYAQQFQGRLTMTRDTPTNTLHMDLRGLTSADTAIYYCARQATKGGWDYWGQGTLVTVSS
VL: EIVLTQSPGTLSLSPGESATLSCRASQSVTRNYLAWYQQQPGQAPRLLIYGASNRATGVPDRFSGSGSGTDFTLTISRLEPEDFAVYYCQQYGSSPPTFIFGPGTKVDIK
fold increase of binding (gMFI) with soluble ACE2 [1]: 5.8 fold | fold increase of binding (gMFI) with soluble ACE2 [2]: 5.3 fold

B4: sd1.040 monoclonal antibody (IgG) (antibody, V domains shown)
VH: QVQLVQSGAEVKKPGASVKVSCKASGYTFTSFYIHWVRQAPGQGLEWMGIIDPSGGSTSYPQKFQGRVTMTRDTSTSTVYMDLSSLRSEDTAVYYCTRDGSAGDNSWFDPWGQGTLVTVSS
VL: not shown
binding result [3]: binds | binding result [4]: binds | binding result [5]: binds | binding result [6]: binds | binding result [7]: binds | binding result [8]: binds | binding result [9]: binds | binding result [10]: binds

B5: sd1.040 Fab (Fab, V domains shown)
VH: QVQLVQSGAEVKKPGASVKVSCKASGYTFTSFYIHWVRQAPGQGLEWMGIIDPSGGSTSYPQKFQGRVTMTRDTSTSTVYMDLSSLRSEDTAVYYCTRDGSAGDNSWFDPWGQGTLVTVSS
VL: not shown
Kd [11]: 200 pM
